Assay results reported in paper PMC3101595 (The Journal of Cell Biology, 2010).

T1: 6His-Flag-DIAP1 (Drosophila, UniProt Q24306 1-438)
T1 sequence (looked up): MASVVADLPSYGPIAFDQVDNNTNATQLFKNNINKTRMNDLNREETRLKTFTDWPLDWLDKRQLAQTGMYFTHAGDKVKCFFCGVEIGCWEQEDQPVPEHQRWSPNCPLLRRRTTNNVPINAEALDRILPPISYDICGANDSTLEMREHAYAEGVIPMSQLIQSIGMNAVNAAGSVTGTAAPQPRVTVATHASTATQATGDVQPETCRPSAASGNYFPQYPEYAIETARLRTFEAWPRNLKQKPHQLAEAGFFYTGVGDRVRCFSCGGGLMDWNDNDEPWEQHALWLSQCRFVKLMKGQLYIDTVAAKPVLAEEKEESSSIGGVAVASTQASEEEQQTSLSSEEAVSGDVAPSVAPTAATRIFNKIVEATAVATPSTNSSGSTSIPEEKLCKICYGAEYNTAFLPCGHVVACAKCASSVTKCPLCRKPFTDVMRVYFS


Experiments:
cross-linking = target: the molecule itself; test: cross-linking
6His-Flag-DIAP1 = target: T1, 6His-Flag-DIAP1; test: co-IP

Binder | binding result (cross-linking) | binding result (6His-Flag-DIAP1)
HidΔMTS-His6 (domain or fragment, Drosophila, UniProt Q24106 1-386, looked up) MAVPFYLPEGGADDVASSSSGASGNSSPHNHPLPSSASSSVSSSGVSSASASSASSSSSASSDGASSAASQSPNTTTSSATQTPMQSPLPTDQVLYALYEWVRMYQSQQSAPQIFQYPPPSPSCNFTGGDVFFPHGHPNPNSNPHPRTPRTSVSFSSGEEYNFFRQQQPQPHPSYPAPSTPQPMPPQSAPPMHCSHSYPQQSAHMMPHHSAPFGMGGTYYAGYTPPPTPNTASAGTSSSSAAFGWHGHPHSPFTSTSTPLSAPVAPKMRLQRSQSDAARRKRLTSTGEDEREYQSDHEATWDEFGDRYDNFTAGRERLQEFNGRIPPRKKKSSNSHSSSSNNPVCHTDSQPGGTSQAESGAIHGHISQQRQVERERQKAKAEKKKP | binds | binds
Rpr-His6 (natural protein, Drosophila, UniProt Q24475 1-65, looked up) MAVAFYIPDQATLLREAEQKEQQILRLRESQWRFLATVVLETLRQYTSCHPKTGRKSGKYRKPSQ | binds | –
